Experimental data: patent US20210024651A1 (published 2021)

Legend:
[1] = biological target: T1, His-tagged FcγRIIIa (V158) (UniProt P08637 17-208); test: BLI, His-tagged FcγRIIIa (V158) captured on HIS1K tips, antibody in solution
T1 construct: not shown: His tag
Procedure: Briefly, anti-Penta-HIS (HIS1K) coated biosensor tips (Pall ForteBio, USA) were used to capture His-tagged FcγRIIIa (V158) (270 nM) for 120 s. All measurements were performed at 25° C. with agitation at 1000 rpm. Association kinetic measurements for antigen binding were performed by incubating anti-HER3 antibodies at different concentrations (500 nM to 15.6 nM) for 60 s, followed by a 120 s dissociation time by transferring the biosensors into assay buffer (pH 7.2) containing wells. Sensograms were referenced for buffer effects and then fitted using the Octet QK384 user software (Pall ForteBio, USA). Kinetic responses were subjected to a global fitting using a one site binding model to obtain values for association (Kₒₙ), dissociation (Koff) rate constants and the equilibrium dissociation constant (KD). Only curves that could be reliably fitted with the software (R²>0.90) were included in the analysis.

rat HER3 = biological target: T2, rat HER3 (rat, UniProt Q62799 20-643, limits assumed); test: ELISA, plate-coated target, antibody titrated from 10 µg/ml
T2 construct: also called rat homologue of HER3; R. norvegicus HER3
T2 sequence (Q62799 20-643 limits assumed): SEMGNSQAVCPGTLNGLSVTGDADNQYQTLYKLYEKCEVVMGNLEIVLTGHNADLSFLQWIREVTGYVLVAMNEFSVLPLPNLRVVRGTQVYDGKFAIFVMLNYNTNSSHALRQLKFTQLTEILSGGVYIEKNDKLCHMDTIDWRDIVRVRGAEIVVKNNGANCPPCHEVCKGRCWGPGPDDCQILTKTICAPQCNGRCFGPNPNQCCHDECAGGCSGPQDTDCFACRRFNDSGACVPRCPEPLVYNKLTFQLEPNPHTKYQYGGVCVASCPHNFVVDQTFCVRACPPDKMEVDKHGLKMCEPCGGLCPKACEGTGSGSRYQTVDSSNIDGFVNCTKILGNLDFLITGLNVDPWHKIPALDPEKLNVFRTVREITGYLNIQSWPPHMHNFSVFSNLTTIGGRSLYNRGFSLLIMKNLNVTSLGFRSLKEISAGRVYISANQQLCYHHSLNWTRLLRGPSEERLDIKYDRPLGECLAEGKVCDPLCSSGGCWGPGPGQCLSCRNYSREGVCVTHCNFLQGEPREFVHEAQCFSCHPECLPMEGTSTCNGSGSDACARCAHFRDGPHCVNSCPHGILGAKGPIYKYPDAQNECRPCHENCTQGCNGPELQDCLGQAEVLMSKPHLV

mouse HER3 = biological target: T3, mouse HER3 (mouse, UniProt Q61526 20-641, limits assumed); test: as above
T3 construct: also called mouse homologue of HER3; M. musculus HER3
T3 sequence (Q61526 20-641 limits assumed): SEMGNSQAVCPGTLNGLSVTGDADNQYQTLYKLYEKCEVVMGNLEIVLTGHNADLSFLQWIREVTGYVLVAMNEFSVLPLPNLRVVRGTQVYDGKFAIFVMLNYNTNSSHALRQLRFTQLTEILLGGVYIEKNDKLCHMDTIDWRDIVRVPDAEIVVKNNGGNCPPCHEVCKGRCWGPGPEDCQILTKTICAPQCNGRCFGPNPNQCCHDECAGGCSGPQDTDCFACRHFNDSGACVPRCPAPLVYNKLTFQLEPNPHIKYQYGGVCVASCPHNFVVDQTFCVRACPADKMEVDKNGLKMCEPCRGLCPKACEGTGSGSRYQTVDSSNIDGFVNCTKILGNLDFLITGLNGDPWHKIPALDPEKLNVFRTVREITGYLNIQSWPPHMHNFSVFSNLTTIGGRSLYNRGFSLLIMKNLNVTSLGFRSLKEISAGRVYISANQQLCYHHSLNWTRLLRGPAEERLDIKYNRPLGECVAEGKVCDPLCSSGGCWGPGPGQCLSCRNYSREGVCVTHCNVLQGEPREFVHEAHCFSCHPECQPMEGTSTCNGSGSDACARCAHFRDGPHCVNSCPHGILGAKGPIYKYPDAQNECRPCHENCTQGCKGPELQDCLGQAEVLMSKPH

Binder | binding result [1] | binding result (rat HER3) | binding result (mouse HER3)
Fc-modified anti-HER3 antibody clone 10D1 comprising GASD substitutions in CH2 region (antibody, human IgG1, kappa, also called 10D1 GASD variant) heavy: not shown light: DIVMTQSQKFMSTSVGDRVSVTCKASQIVGSNVAWYQQKPGQSPKPLIYSASYRYSGVPDRFTASGSGTDFTLTITNVQSEDLAEYFCQQYSSHPLTFGAGTKLELKRTVAAPSVFIFPPSDEQLKSGTASVVCLLNNFYPREAKVQWKVDNALQSGNSQESVTEQDSKDSTYSLSSTLTLSKADYEKHKVYACEVTHQGLSSPVTKSFNRGEC | binds | – | –
anti-HER3 clone 10D1 IgG1 (antibody, Mouse variable regions on human IgG1/kappa constant regions (chimeric); also called 10D1P; 10D1 (parental)) heavy: not shown light: DIVMTQSQKFMSTSVGDRVSVTCKASQIVGSNVAWYQQKPGQSPKPLIYSASYRYSGVPDRFTASGSGTDFTLTITNVQSEDLAEYFCQQYSSHPLTFGAGTKLELKRTVAAPSVFIFPPSDEQLKSGTASVVCLLNNFYPREAKVQWKVDNALQSGNSQESVTEQDSKDSTYSLSSTLTLSKADYEKHKVYACEVTHQGLSSPVTKSFNRGEC | binds | binds | binds
10D1F.FcA (anti-HER3 clone 10D1_c89 IgG1) (antibody, V domains shown, also called 10D1F.A) VH: QVQLQESGPGLVKPSQTLSLTCTVSGYSITSGYSWHWIRQHPGKGLEWIGSIRYSGGTDYNPSLKSLVTISADTSKNQFSLKLSSVTAADTAVYYCARMTTAPWYPFDYWGQGTTVTVSS VL: DIQMTQSPSSVSASVGDRVTITCKASQIVGSNVAWYQQKPGKAPEPLIYSASYLYSGVPSRFSGSGSGTDFTLTISSLQPEDFATYYCQQYSSHPLTFGQGTKLEIKR | – | binds | binds
